B1: FCHO1 (parent)
chain: HLELTRKLQDLIKDVLRYGEEQLK
B2: STK38L (parent)
chain: RQLAYSTVGTPDYIAPEVFMQTGY

Variants of: B1
Test: protein stability index of a GFP-peptide fusion (GPS, HEK-293T) (PSI 1-6); higher = more stable
Conditions: c terminus: a fixed tail appended
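Note: lentivirally expressed fusions sorted by FACS into six bins by GFP to DsRed ratio, PSI derived from sequencing read proportions per bin multiplied by bin number.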

Protein stability index of substitutions, site by site:
G19: S 1.52; V 2.02; Q 1.59; Y 1.75; R 2.53; L 2.03; T 3.25; P 1.78; W 3.49; M 1.97; N 2.18
E20: S 3.54; Y 2.65; H 2.58; C 2.57; M 2.81; G 2.66; A 2.69; P 2.51; K 1.7; D 3.65; T 1.74; V 3.74; I 3.44; W 3.32
L23: P 1.73; A 2.36; T 3.42; C 1.09; Y 2.29; H 2.15; Q 2.06; E 2.24; I 3.49; S 2.31; F 3.59; N 2.61; D 2.53; G 2.57; R 2.44; K 2
E21: Y 3.04; D 1.81; N 3.29; T 2.8; M 3.24; R 2.43; I 3.67; H 2.76; W 1.81
K24: Y 2.8; F 2.05; S 2.66; T 1.6; A 1.59; P 2.02; Q 2.48; G 1.01; V 4.54; E 1.44; H 3.16; D 1.84; L 2.8; N 3.69; I 2.67; M 2.79; C 1.63
Q22: A 1.68; Y 3.18; D 2.43; E 2.37; S 1.84; L 2.14; F 2.07; G 2.62; R 3.19; H 2.41; P 1.79; V 2.32; I 2.21; C 1.59; M 1.91

Variants of: B2
Test: as above
Conditions: c terminus: a fixed tail appended

Protein stability index, by site and new letter:
L3: G 2.74; F 2.33; D 3.37; T 2.84; I 2.24; R 3.09; P 2.44; K 2.68; M 2.72; H 2.43; Q 2.61; Y 2.41; E 3.15; V 2.73; W 1.53; A 2.55; C 2.06; S 2.65; N 2.56
T10: F 1.73; P 2.48; D 2.16; A 2.88; W 1.72; N 2.05; I 1.3; E 2.89; C 2.18; V 2.27; K 2.17; M 2.61; L 1.96; S 1.42; H 2.36; Q 3.41; Y 1.72; G 3.01; R 2.86
Q2: N 2.16; P 2.5; H 1.79; A 2.45; W 1.27; R 3.34; T 2.53; L 1.7; M 2.03; I 1.61; E 2.3; Y 1.88; F 2.55; S 2.4; C 2.42; V 1.46; G 1.84; K 2.54; D 2.69
G9: P 2.6; R 2.65; D 3.15; Y 2.9; N 2.62; L 3.14; F 2.27; M 2.59; T 2.7; S 2.37; A 2.63; K 2.24; I 2.17; E 2.71; V 1.98; H 2.42; W 1.89; C 1.97; Q 2.77
Y13: S 4.05; E 3.29; V 2.33; W 1.88; K 2.92; N 3.57; P 2.75; G 3.08; H 2.42; T 2.92; F 1.93; A 2.9; M 2.57; L 2.15; D 3.26; Q 3.01; I 3.12; C 3
T7: C 2.07; L 2.1; I 2.04; R 2.52; P 3.26; F 1.62; K 2.41; Y 2.07; N 2.51; E 3.02; G 2.62; M 1.84; D 2.26; A 2.76; W 1.79; S 2.11; Q 3.12; H 2.44; V 2.04
I14: A 3.13; F 1.57; G 2.65; D 2.81; H 2.57; E 2.92; C 2.28
V8: Q 2.63; T 2.83; E 3.29; C 1.49; D 3.27; W 2.5; Y 1.74; H 2.92; S 2.6; F 2.18; K 2.98; M 2.87; N 2.41; P 2.51; R 2.25; G 2.76; L 2.37; I 2.58; A 2.59
D12: L 2.43; C 1.98; V 1.59; N 2.76; S 2.68; A 2.21; Y 1.82; W 2.08; I 1.81; H 2.54; R 3; T 2.91; G 2.11; M 2.59; K 2.31; Q 2.72; F 1.98; E 2.43
P11: H 2.58; V 1.89; R 1.8; C 2.57; L 2.2; W 2.29; I 2; E 3.13; S 2.63; G 3; Y 2.57; F 1.85; D 2.36; T 2.44; K 2.59; M 2.18; N 2.78; A 2.64; Q 2.49
Y5: L 2.84; S 2.93; H 3.07; E 3.13; M 2.95; V 2.36; F 2.44; W 2.13; I 2.83; D 3.59; T 2.51; Q 3.43; K 2.58; C 2.38; P 3.42; R 2.81; N 3.26; G 3.03; A 3.06
A4: I 1.77; D 2.38; F 1.89; H 2.61; E 2.8; N 2.52; Y 2.17; R 2.75; V 2.02; P 2.39; C 2.14; G 2.86; S 2.65; M 2.6; W 1.64; K 3.29; L 2.69; Q 3.1; T 2.55
R1: T 2.56; Y 2.51; V 2.45; Q 2.47; S 2.38; D 2.71; F 3.13; G 1.95; P 3.41; H 2.38; L 1.87; E 3.06; C 2.06; A 2.38; M 1.79; W 2.84; N 2.82; I 1.15; K 2.71
S6: F 1.65; Q 2.25; N 2.46; L 2.08; D 2.55; M 1.79; R 2.79; V 1.45; H 2.63; T 2.21; A 1.95; W 2.5; P 2.44; K 2.43; G 2.32; Y 1.77; I 1.78; C 1.84; E 3.3

Source: the supplement of paper PMC10567573
